For the assay, the target named is ErlA. The experiment in a line: SEC. (In general: SEC sorts molecules by how far they enter the pores of the column.)

The source of these data is article doi:10.1101/2024.12.27.630466.

ErlB (natural protein) displayed a stoichiometry N (ErlB per ErlA (4:4)) of 1.
